Laboratory results: patent publication US20140227262A1, “PD-1 Antagonists and Methods for Treating Infectious Disease” (AMPLIMMUNE, INC., priority 2008, published 2014)
Changes are numbered by the printed parent chain. In names and notes the source's numbering stands. One block for each molecule: values may come before it.

How the values were obtained:
[1] = test system: CT26 colorectal tumor cells; assay: Established CT26 colorectal tumor model; settings: 100 mg/kg cyclophosphamide on day 10, alone
From the text: Balb/C mice at age of 9 to 11 weeks were implanted subcutaneously with 1.0×10^5 CT26 colorectal tumor cells.

[2] = target: T1, recombinant human PD-1/Fc (Homo sapiens, UniProt Q15116); assay: PD-1 binding ELISA, human B7-DC-Ig; settings: four different lots, FIG. 1A
T1 construct: Fc (immunoglobulin Fc fusion partner); purchased R&D Systems
T1 sequence (Q15116 with tags, fused parts or gaps limits assumed): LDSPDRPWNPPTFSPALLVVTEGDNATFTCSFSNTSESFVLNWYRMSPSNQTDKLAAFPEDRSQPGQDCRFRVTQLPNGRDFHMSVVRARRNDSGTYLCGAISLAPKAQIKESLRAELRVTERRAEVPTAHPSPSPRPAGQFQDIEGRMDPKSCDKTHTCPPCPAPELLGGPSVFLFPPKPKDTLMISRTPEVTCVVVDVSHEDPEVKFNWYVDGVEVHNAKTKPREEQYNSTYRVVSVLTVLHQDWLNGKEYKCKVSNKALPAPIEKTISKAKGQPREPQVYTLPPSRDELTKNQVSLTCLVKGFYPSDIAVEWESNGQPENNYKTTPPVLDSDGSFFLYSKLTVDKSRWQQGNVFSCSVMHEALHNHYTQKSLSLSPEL
Protocol: (§1) 96-well ELISA plates were coated with 100 μL 0.75 ug/mL recombinant human PD-1/Fc (R&D Systems) diluted in BupH Carbonate/Bicarbonate pH 9.4 buffer (Pierce) for 2 hours and then blocked with BSA solution (Jackson ImmunoResearch) for 90-120 minutes. […] Absorbance at 450 nm was read using a plate reader (Molecular Devices) and data were analyzed in SoftMax using a 4-parameter logistic fit.

[3] = target: T2, recombinant mouse PD-1/Fc (Mus musculus, UniProt Q02242); assay: PD-1 binding ELISA, murine B7-DC-Ig; settings: FIG. 1B
T2 construct: Fc (immunoglobulin Fc fusion partner); purchased R&D Systems
T2 sequence (Q02242 with tags, fused parts or gaps limits assumed): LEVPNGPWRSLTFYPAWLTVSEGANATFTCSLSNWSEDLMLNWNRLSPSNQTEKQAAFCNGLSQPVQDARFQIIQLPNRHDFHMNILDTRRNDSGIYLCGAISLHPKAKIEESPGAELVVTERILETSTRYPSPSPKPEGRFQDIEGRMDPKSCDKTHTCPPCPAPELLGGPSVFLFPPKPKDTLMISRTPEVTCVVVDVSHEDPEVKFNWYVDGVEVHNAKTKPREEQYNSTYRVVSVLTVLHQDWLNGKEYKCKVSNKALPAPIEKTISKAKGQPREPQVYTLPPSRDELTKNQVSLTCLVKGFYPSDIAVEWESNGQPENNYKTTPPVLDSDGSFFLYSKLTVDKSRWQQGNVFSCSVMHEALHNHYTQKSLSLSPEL
Protocol: as §1, with “mouse” for “human”, “(Candor-Bioscience)” for “(Jackson ImmunoResearch)”, “90” for “90-120”

Molecule: O=P1(N(CCCl)CCCl)NCCCO1 (centres unmarked) [CTX, cyclophosphamide]
- outcome of tumor-bearing mice (death or euthanasia) [1]: died as a result of tumor growth or were euthanized

B2: D111S: murine B7-DC-Ig with the D111S substitution (protein)
chain: LFTVTAPKEVYTVDVGSSVSLECDFDRRECTELEGIRASLQKVENDTSLQSERATLLEEQLPLGKALFHIPSVQVRDSGQYRCLVICGAAWSYKYLTVKVKASYMRIDTRILEVPGTGEVQLTCQARGYPLAEVSWQNVSVPANTSHIRTPEGLYQVTSVLRLKPQPSRNFSCMFWNAHMKELTSAIIDPLSRMEPKVPRTWEPRGPTIKPCPPCKCPAPNLLGGPSVFIFPPKIKDVLMISLSPIVTCVVVDVSEDDPDVQISWFVNNVEVHTAQTQTHREDYNSTLRVVSALPIQHQDWMSGKEFKCKVNNKDLPAPIERTISKPKGSVRAPQVYVLPPPEEEMTKKQVTLTCMVTDFMPEDIYVEWTNNGKTELNYKNTEPVLDSDGSYFMYSKLRVEKKNWVERNSYSCSVVHEGLHNHHTTKSFSRTPGK
- binding to PD-1 in PD-1 binding ELISA (OD450) [3]: reduced binding to PD-1

Results, then the molecule that gave them:

- binding to PD-1 in PD-1 binding ELISA (OD450) [2]: binding to PD-1
Molecule: human B7-DC-Ig: human PD-L2 (B7-DC) fusion protein; representative sequence SEQ ID NO: 56/57

- binding to PD-1 in PD-1 binding ELISA (OD450) [3]: binding to PD-1
B1: wild type murine B7-DC-Ig: murine PD-L2 (B7-DC) fusion protein; representative sequence SEQ ID NO: 53/54 (protein, listed as Mus musculus)
chain: MLLLLPILNLSLQLHPVAALFTVTAPKEVYTVDVGSSVSLECDFDRRECTELEGIRASLQKVENDTSLQSERATLLEEQLPLGKALFHIPSVQVRDSGQYRCLVICGAAWDYKYLTVKVKASYMRIDTRILEVPGTGEVQLTCQARGYPLAEVSWQNVSVPANTSHIRTPEGLYQVTSVLRLKPQPSRNFSCMFWNAHMKELTSAIIDPLSRMEPKVPRTWEPRGPTIKPCPPCKCPAPNLLGGPSVFIFPPKIKDVLMISLSPIVTCVVVDVSEDDPDVQISWFVNNVEVHTAQTQTHREDYNSTLRVVSALPIQHQDWMSGKEFKCKVNNKDLPAPIERTISKPKGSVRAPQVYVLPPPEEEMTKKQVTLTCMVTDFMPEDIYVEWTNNGKTELNYKNTEPVLDSDGSYFMYSKLRVEKKNWVERNSYSCSVVHEGLHNHHTTKSFSRTPGK

- binding to PD-1 in PD-1 binding ELISA (OD450) [3]: reduced binding to PD-1
B3: K113S: murine B7-DC-Ig with the K113S substitution (protein)
chain: B2 chain with S92D, K94S
